Experimental data taken from patent US9482669B2, “Crystal structure of the NanR and ManNAc-6P complex, and uses thereof” (priority 2013, dated 2016).
Numbering of substitutions follows the chain as printed. In names and notes the source's numbering stands.

B1: NanR dimer: V. vulnificus transcriptional repressor of the nan operon, SEQ ID NO. 1 (protein, listed as Vibrio vulnificus)
chain: MGSPKNLLVRLRSNMEPFSKKLRVVADYILENAHDVQFQTITDLARNTQTSEATVVRLCRDMGYKGYSDFRMALAVDLSQTESRQQNHIEGDICDVSAQSAVDSLQDTAKLIDRKSLARIVERVHQAEFIGCIGVGASSIVGRYLAYRLIRIGKKAIMFEDTHLAAMSASRSSQGDLWFAVSSSGSTKEVIHAAGLAYKRDIPVVSLTNINHSPLSSLSTEMLVAARPEGPLTGGAFASKVGALLLVDVLVNSLLESYPEYKDSVQETAEVVIPLMAN
modifications: homodimer
B2: S184A: modified NanR protein, Ser184 substituted with alanine (protein)
chain: B1 chain with S184A
B3: K188L (protein)
chain: B1 chain with K188L
B4: H163L: modified NanR protein, His163 substituted with leucine (protein)
chain: B1 chain with H163L
B5: K199A (protein)
chain: B1 chain with K199A
B6: R60A: modified NanR protein, Arg60 substituted with alanine (protein)
chain: B1 chain with R60A
B7: K199L (protein)
chain: B1 chain with K199L
B8: K240A: modified NanR protein, Lys240 substituted with alanine (protein)
chain: B1 chain with K240A
B9: R57A: modified NanR protein, Arg57 substituted with alanine (protein)
chain: B1 chain with R57A
B10: E229L: modified NanR protein, Glu229 substituted with leucine (protein)
chain: B1 chain with E229L
B11: K188A (protein)
chain: B1 chain with K188A
B12: S138A: modified NanR protein, Ser138 substituted with alanine (protein)
chain: B1 chain with S138A
B13: R57L: modified NanR protein, Arg57 substituted with leucine (protein)
chain: B1 chain with R57L
B14: K240M: modified NanR protein, Lys240 substituted with methionine (protein)
chain: B1 chain with K240M
B15: R60L: modified NanR protein, Arg60 substituted with leucine (protein)
chain: B1 chain with R60L
B16: S182A: modified NanR protein, Ser182 substituted with alanine (protein)
chain: B1 chain with S182A
B17: H163A: modified NanR protein, His163 substituted with alanine (protein)
chain: B1 chain with H163A
B18: NanR complexed with ManNAc-6P: complex formed by interaction between NanR protein and ManNAc-6P (protein, UniProt P0A8W0 1-263, looked up)
HTH-type transcriptional …: MGLMNAFDSQTEDSSPAIGRNLRSRPLARKKLSEMVEEELEQMIRRREFGEGEQLPSERELMAFFNVGRPSVREALAALKRKGLVQINNGERARVSRPSADTIIGELSGMAKDFLSHPGGIAHFEQLRLFFESSLVRYAAEHATDEQIDLLAKALEINSQSLDNNAAFIRSDVDFHRVLAEIPGNPIFMAIHVALLDWLIAARPTVTDQALHEHNNVSYQQHIAIVDAIRRHDPDEADRALQSHLNSVSATWHAFGQTTNKKK
modifications: complexed with ManNAc-6P

Experiments:
[1] = test system: nanTp-nanE intergenic region; experiment: EMSA of NanR with nanTp-nanE intergenic region; format: binding, Vibrio vulnificus; settings: for DNA binding in EMSA: wild-type or mutant NanR
Experimental: (§1) Purified His-NanR protein was used to raise a primary polyclonal antibody by immunizing European rabbits (Oryctolagus curiculus). First, after one primary injection containing 500 μg of protein, three boosters containing 200 μg of protein was performed at 2-week intervals. Western blotting, EMSA and DNaseI footprinting assays were performed according to typical procedures known in the art.
NanR represses both nan T(PSL)AR and nanEK nagA operons by binding to an operator within the nanTp-nanE intergenic region. To examine the role of R57 and R60 residues in DNA binding, EMSA (electrophoretic gel mobility shift assays), in which the nanTp-nanE intergenic region was incubated with wild-type or mutant NanR in the absence or presence of ManNAc-6P, were performed.
The importance of K188 and K199 residues on all to binding of NanR to DNA was assessed by EMSA. […] Furthermore, the mutants were much more susceptible to ManNAc-6P than wild-type NanR (FIG. 10). […] The transcriptional control region of nan operon interacts with the dimer via the positively charged residues in this space (FIGS. 7b and 7c).

[2] = test system: 32P-labeled transcriptional control region of nan operon; experiment: DNaseI footprinting assay; format: binding, Vibrio vulnificus; settings: 400 nM NanR, 0.1 mM or 1 mM ManNAc-6P
Experimental: as §1
(§2) Therefore, the present inventors hypothesized that binding of ManNAc-6P may alter the conformation of NanR and alleviate its interaction with the transcriptional control region of nan operon. In detail, a DNaseI footprinting assay using NanR protein and ^32P-labeled transcriptional control region of nan operon was performed.

[3] = molecular target: NanR-binding duplex DNA (transcriptional control region of nan operon); experiment: Isothermal titration calorimetry of NanR with NanR-binding duplex DNA; parameters: species or system Vibrio vulnificus; settings: for Kd: ITC at 25° C., 0.48 mM protein titrated against 0.03 mM DNA, read-out: dissociation constant (Kd) for target DNA
Experimental: NanR-binding duplex DNA (5′-[…] […]-3′, SEQ ID NO:15) was chemically synthesized. NanR was dialyzed extensively against Tris buffer (50 mM Tris-HCl, pH 7.0; 300 mM NaCl) and the DNA was diluted to 0.03 mM in the same buffer. Protein and DNA samples were degassed by vacuum aspiration for 20 minutes prior to loading and titration was carried out at 25° C. The NanR dimer in the syringe (0.48 mM) was titrated against the 0.03 mM DNA sample in the reaction cell. Analysis of the interaction between the NanR/ManNAc-6P complex and the DNA sample was performed using 0.48 mM of complex and 0.03 mM of DNA. The calorimetric assays were performed using a VP-ITC (MicroCal Inc., Northampton, Mass.). The stirring speed was 300 rpm and the thermal power was recorded every 10 seconds. Data were processed and plotted using the Origin program (version 7) supplied with the instrument.
as §2

[4] = test system: PnanTp; experiment: E. coli dual plasmid system (luciferase reporter fused to PnanTp); format: cell-based; settings: for luciferase activity (PnanTp) after addition of Neu5Ac: BSE1201 host, arabinose, presence or absence of Neu5Ac; for repressive effect of NanR on activity of PnanTp: point mutations in DBD
Experimental: E. coli strains were co-transformed with a luciferase reporter plasmid (pBS0915) and one of the pNB-series of plasmids that express NanR. Cells were cultured overnight and then diluted into the appropriate fresh media (supplemented M9 in FIG. 3; LB in FIG. 4) containing arabinose (0.002%), and incubated at 37° C. until cells grew to early exponential phase. Relative luminescence unit (RLU) was calculated by dividing the luminescence by the A600, as described previously. For screening ligand-sensing residues, the BSE1201 strain (ΔaraBAD ΔnanE) was used as the host cell instead of DH5α to ensure that the arabinose was not used as a carbon source and that ManNAc-6P generated from Neu5Ac was accumulated in the cell.
To assess the importance of the interaction between ManNAc-6P and NanR to regulation of the nan genes, the residues involved in ligand-binding were mutated and the impact on NanR function was investigated using an E. coli dual plasmid system. Cells were cotransformed with plasmids containing a luciferase reporter gene fused to the NanR-binding nanT(PSL)AR promoter (PnanTp), and wild-type or mutant NanR, and then incubated in the presence of arabinose and the presence or absence of Neu5Ac.
The simplest helix-turn-helix (HTH)-containing DBD includes three core helices; the HTH domains can form tetra-helical bundle, winged helix, and ribbon-helix-helix type configurations. The DBD of NanR is composed of a six-helix bundle, which is not the archetypal conformation of HTH-containing domains; therefore, the recognition helix required for DNA-binding could not been determined. […] The importance of these residues to DNA-binding was examined using an E. coli dual plasmid system described in Example 2. The repressive effect of wild-type NanR on activity of PnanTp was abolished by the R57A, R57L, R60A, and R60L point mutations (FIG. 4c).

[5] = test system: PnanE; experiment: In vitro transcription assay; format: biochemical, Vibrio vulnificus; settings: 100 nM NanR protein, presence or absence of 1 mM ManNAc-6P
Experimental: In vitro transcription assays with wild-type or mutant NanR proteins were performed according to procedures described previously. RNA extraction, cDNA synthesis, and real time PCR amplification of the cDNA were performed as described previously.

Molecule	luciferase activity (PnanTp) after addition of Neu5Ac [4]	DNA binding in EMSA [1]	also measured
CC(=O)N[C@@H]1C(O)O[C@H](COP(=O)(O)O)[C@@H](O)[C@@H]1O (some centres unmarked) [ManNAc-6P, N-acetylmannosamine 6-phosphate]			effect of ManNAc-6P on DNA migration in EMSA ([1]; addition of ManNAc-6P): retardation of DNA migration; effect of ManNAc-6P on DNaseI protection by NanR [2]: cleavage bands at the center of the NanR-binding site disappeared
B1	increased following addition of Neu5Ac		Kd [3]: 1.4 µM
B2	as active as wild-type NanR		
B3		not as conspicuous as that of wild-type NanR	
B4	unable to activate PnanTp		
B5		not as conspicuous as that of wild-type NanR	
B6		No DNA migration was detected	repressive effect of NanR on activity of PnanTp [4]: abolished; repression of PnanE transcription [5]: did not repress PnanE
B7		not as conspicuous as that of wild-type NanR	
B8	unable to activate PnanTp		
B9		No DNA migration was detected	repressive effect of NanR on activity of PnanTp [4]: abolished; repression of PnanE transcription [5]: did not repress PnanE
B10	unable to activate PnanTp		
B11		not as conspicuous as that of wild-type NanR	
B12	unable to activate PnanTp		
B13			repressive effect of NanR on activity of PnanTp [4]: abolished
B14	unable to activate PnanTp		
B15			repressive effect of NanR on activity of PnanTp [4]: abolished
B16	unable to activate PnanTp		
B17	unable to activate PnanTp		
B18			Kd [3]: 186 µM; reduction of interaction affinity for DNA versus NanR dimer ([3]; NanR complexed with ManNAc-6P): 130 fold
